In patent US20240287164A1, “ANTIBODIES SPECIFIC TO NELL2 AND METHODS OF USE” (BOARD OF REGENTS, THE UNIVERSITY OF TEXAS SYSTEM, priority 2021, published 2024):
“Also recorded” adds a separate entry of the source.

B1: recombinant NELL2: purified recombinant NELL2 protein added to the culture medium (protein, UniProt Q99435 22-816, looked up)
Protein kinase C-binding …: LGVDPSLQIDVLTELELGESTTGVRQVPGLHNGTKAFLFQDTPRSIKASTATAEQFFQKLRNKHEFTILVTLKQTHLNSGVILSIHHLDHRYLELESSGHRNEVRLHYRSGSHRPHTEVFPYILADDKWHKLSLAISASHLILHIDCNKIYERVVEKPSTDLPLGTTFWLGQRNNAHGYFKGIMQDVQLLVMPQGFIAQCPDLNRTCPTCNDFHGLVQKIMELQDILAKTSAKLSRAEQRMNRLDQCYCERTCTMKGTTYREFESWIDGCKNCTCLNGTIQCETLICPNPDCPLKSALAYVDGKCCKECKSICQFQGRTYFEGERNTVYSSSGVCVLYECKDQTMKLVESSGCPALDCPESHQITLSHSCCKVCKGYDFCSERHNCMENSICRNLNDRAVCSCRDGFRALREDNAYCEDIDECAEGRHYCRENTMCVNTPGSFMCICKTGYIRIDDYSCTEHDECITNQHNCDENALCFNTVGGHNCVCKPGYTGNGTTCKAFCKDGCRNGGACIAANVCACPQGFTGPSCETDIDECSDGFVQCDSRANCINLPGWYHCECRDGYHDNGMFSPSGESCEDIDECGTGRHSCANDTICFNLDGGYDCRCPHGKNCTGDCIHDGKVKHNGQIWVLENDRCSVCSCQNGFVMCRRMVCDCENPTVDLFCCPECDPRLSSQCLHQNGETLYNSGDTWVQNCQQCRCLQGEVDCWPLPCPDVECEFSILPENECCPRCVTDPCQADTIRNDITKTCLDEMNVVRFTGSSWIKHGTECTLCQCKNGHICCSVDPQCLQEL

Columns and labels:
BAF complexes [1] = test: Actin in BAF complexes (immunoprecipitation, phalloidin dot blot and phalloidin pull-down); format: cell-based; settings: A-673 cell nuclear extract
Description: Immunoprecipitation. Immunoprecipitation was performed (Shiio, Y., and Eisenman, R. N. (2003) Histone sumoylation is associated with transcriptional repression. Proc Natl Acad Sci USA). The following antibodies were used: rabbit monoclonal anti-BRG1 (ab110641, Abcam), rabbit monoclonal anti-BAF57 (33360, Cell Signaling Technologies), and mouse monoclonal anti-FLAG M2 (F1804, MilliporeSigma).
Phalloidin dot blot assays. The BAF complexes were immuno-purified from nuclear extract using anti-BRG1 or anti-BAF57, (for endogenous BAF) or anti-FLAG antibody (for FLAG-BRG1-containing BAF) and were spotted onto a nitrocellulose membrane (sample amount normalized by cell number). The membrane was allowed to dry at room temperature for 30 minutes. The membrane was rinsed with TBST (150 mM NaCl, 20 mM Tris, pH7.4, 0.05% Tween-20), blocked with 5% BSA in TBST, and incubated with Biotin-XX Phalloidin (Biotium) either overnight at 4° C. or for two hours at room temperature followed by three washes with TBST. The membrane was incubated with High Sensitivity Streptavidin-HRP (21130, Pierce/Thermo Fisher) for one hour and was washed three times with TBST, followed by detection with ECL reagent.

BAF complexes [2] = test: BAF subunit protein levels by immunoblotting in Ewing sarcoma cells; format: cell-based, human
Description: Immunoblotting. […] The following antibodies were used: rabbit polyclonal anti-FLI1 (ab15289, Abcam); mouse monoclonal anti-FLAG M2 (F1804, MilliporeSigma): rabbit monoclonal anti-NELL2 (ab181376, Abcam); goat polyclonal anti-PGK1 (sc-17943, Santa Cruz Biotechnology); rabbit polyclonal anti-Robo3 (LS-C345713, LSBio); goat polyclonal anti-Robo3 (PA5-18714, Thermo Fisher Scientific); mouse monoclonal anti-cdc42 (ACD03, Cytoskeleton); rabbit polyclonal anti-Rac1/2/3 (2465, Cell Signaling Technologies); rabbit polyclonal anti-Rho A (2117, Cell Signaling Technologies); goat polyclonal anti-BRG1 (A303-877A, Bethyl Laboratories); rabbit monoclonal anti-BRG1 (49360, Cell Signaling Technologies); rabbit polyclonal anti-BRM (A301-014A-T, Bethyl Laboratories); mouse monoclonal anti-ARID1A/BAF250) (sc-32761, Santa Cruz Biotechnology); rabbit polyclonal anti-BAF170 (A301-039A-T, Bethyl Laboratories); rabbit monoclonal anti-BAF155 (11956, Cell Signaling Technologies); rabbit polyclonal anti-BAF60B (A301-596A-T, Bethyl Laboratories); rabbit polyclonal anti-BAF57 (A300-810A-T, Bethyl Laboratories); rabbit polyclonal anti-BAF53A (A301-391A-T, Bethyl Laboratories); rabbit monoclonal anti-BAF47 (8745, Cell Signaling Technologies); rabbit polyclonal anti-BRD9 (A303-781A-T, Bethyl Laboratories); rabbit monoclonal anti-SS18 (21792, Cell Signaling Technologies); rabbit monoclonal anti-CD133 (64326, Cell Signaling Technologies); rabbit polyclonal anti-srGAP1 (A301-286A-T, Bethyl Laboratories); rabbit polyclonal anti-srGAP2 (GTX130797, GeneTex); mouse monoclonal anti-tubulin (DMIA, Thermo Fisher Scientific); rabbit polyclonal anti-β-actin (4967, Cell Signaling Technologies); mouse monoclonal anti-Rpb1 (2629, Cell Signaling Technologies); rabbit monoclonal anti-cdc6 (3387, Cell Signaling Technologies); rabbit monoclonal anti-caveolin-1 (3267, Cell Signaling Technologies); rabbit polyclonal anti-phospho-caveolin-1 (3251, Cell Signaling Technologies); rabbit monoclonal anti-Src (2123, Cell Signaling Technologies); rabbit monoclonal anti-phospho-Src Family (6943, Cell Signaling Technologies); and rabbit polyclonal anti-GDF6 (NBP1-91934, Novus Biologicals). The following HRP-conjugated secondary antibodies were used: goat anti-rabbit (7074) and goat anti-mouse (7076) (Cell Signaling Technologies); donkey anti-goat (A50)-201P, Bethyl Laboratories).

[3] = system: Robo3-FLAG on A-673 cell surface; test: Robo3-FLAG cell surface staining in NELL2-silenced cells; format: cell-based, human; settings: A-673 cells; FIG. 2D
Description: Immunofluorescence. Cells grown on coverslips were fixed with 4% paraformaldehyde for 15 minutes at room temperature, washed with PBS, and permeabilized with 0.2% pre-chilled Triton-X 100/PBS for 5 minutes. The samples were blocked with culture medium for one hour and incubated with the primary antibody for three hours followed by the secondary antibody for one hour. The following primary antibodies were used: rabbit polyclonal anti-NELL2 (NBP1-82527, Novus Biologicals); mouse monoclonal anti-FLAG M2 (F1804, MilliporeSigma); mouse monoclonal anti-CD133 AC133 (130-090-422, Miltenyi Biotec); rabbit polyclonal anti-FLI1 (ab15289, Abcam); and mouse monoclonal anti-CD99 (MS-1633-P0, Thermo Fisher Scientific). The following secondary antibodies were used: Alexa Fluor 488, goat anti-rabbit IgG (A11034, Thermo Fisher Scientific); Alexa Fluor 568, goat anti-rabbit IgG (A11036, Thermo Fisher Scientific); Alexa Fluor 488, goat anti-mouse IgM (A21042, Thermo Fisher Scientific); and Alexa Fluor 594, goat anti-mouse IgG (A11032, Thermo Fisher Scientific). Nuclei were stained with DAPI. DyLight™ 554 Phalloidin (13054, Cell Signaling Technologies) was used to visualize filopodia.

cdc42 and Rac = test: GST-PAKI pull-down of active cdc42 and Rac; format: cell-based, human; settings: FIG. 3D
Description: GST pull-down assays. The active form of cdc42, Rac, and Rho A was analyzed by pull-down of whole cell lysate with GST-PAKI (active cdc42 and Rac) and GST-RBD (active Rho A) followed by immunoblotting for cdc42, Rac, and Rho A as described (Ren, X. D., et al. (1999) EMBO J 18, 578-585).

CD133^low population = test: Proliferation of sorted CD133low population (IncuCyte); format: cell-based, human; settings: FIG. 5A
Description: Cell proliferation and xenograft tumorigenicity assays. Anchorage-dependent cell proliferation was assessed by IncuCyte live-cell imaging system (Essen BioScience). The IncuCyte system monitors cell proliferation by analyzing the occupied area (% confluence) of cell images over time. At least four fields from four wells were assayed for each experimental condition. The cell seeding density was 2000 cells per well in a 96-well plate. For each assay, biological replicates were performed to confirm the reproducibility of results. Anchorage-independent cell proliferation was evaluated by soft agar colony formation assays. A-673 cells were infected with lentiviruses expressing shRNAs against NELL2 or scrambled shRNA and were selected with 2 μg/ml puromycin. Four days after infection, 4×10^3 cells were plated in soft agar. The soft agar cultures were composed of two layers; a base layer [4 ml in a 60-mm dish; DMEM/10% fetal bovine serum/0.6% noble agar (A5431, MilliporeSigma)/penicillin/streptomycin] and a cell layer (2 ml in a 60-mm dish; DMEM/10% fetal bovine serum/0.3% noble agar/penicillin/streptomycin). Colonies were grown for three weeks and counted. Colonies (>50 cells) were scored by randomly counting 10 fields per dish. Sphere formation assays were done (Dasgupta, A., et al. (2017) Oncotarget 8, 77292-77308) using ultra-low attachment 6-well plates (Corning: seeding density 1×10^4 cells/well) and DMEM/F-12 medium supplemented with B27, human recombinant epidermal growth factor (20 ng/ml), and basic fibroblast growth factor (20 ng/ml). For xenograft tumorigenicity assays, cells were subcutaneously injected into the flanks of SCID mice (2×10^6 cells/injection, five mice/group). Tumor growth was monitored weekly using a caliper. While it is not possible to predict the effect size, the sample size of five mice per group was chosen based on experience with xenograft experiments. Mice were randomly allocated to treatment groups. Blinding of the researcher measuring tumor size was employed.
Flow cytometry. […]

BAF complexes [4] = test: Gel filtration chromatography of nuclear extract (BAF complex assembly); format: cell-based; settings: A-673 cells; four-hour treatment
Description: Gel filtration chromatography. Nuclear extract was prepared as described (Carey, M. F., et al. (2009) Dignam and Roeder nuclear extract preparation. Cold Spring Harbor protocols 2009, pdb prot5330). The extract (5 mg) was loaded onto HiPrep 16/60 Sephacryl S-400 HR column (GE Healthcare) equilibrated with a gel filtration buffer (150 mM NaCl, 20 mM Hepes-KOH, 10 mM KCl, 1 mM MgCl2, 1 mM EDTA, 1 mM EGTA, 1 mM DTT, pH 7.5). Proteins were eluted at 1 ml/min and 1-ml fractions were collected. Every fourth fraction was concentrated and analyzed by immunoblotting.

A-673 and EW8 cells = test: Proliferation of NELL2- or Robo3-silenced Ewing sarcoma cells (IncuCyte); format: cell-based, human; settings: A-673 cells transfected with NELL2 siRNAs, recombinant NELL2 250 ng/ml
Description: Transfection and viral infection. Calcium phosphate co-precipitation was used for transfection of 293T cells. Lentiviruses were prepared by transfection in 293T cells following System Biosciences' protocol, and the cells infected with lentiviruses were selected with 2 μg/mL puromycin for 48 hours. The target sequences for shRNAs are as follows: FLI1 C-terminus shRNA, […] (SEQ ID NO: 20); luciferase shRNA, […] (SEQ ID NO: 21); NELL2 shRNA-1, […] (SEQ ID NO: 22); and NELL2 shRNA-2, […] (SEQ ID NO: 23). The following siRNAs were used: human NELL2 siRNA SMARTpool (M-012185-00); Dharmacon), human Robo3 siRNA SMARTpool (M-026504-00; Dharmacon), human Robo3 siRNAs NM_022370 (SASI_Hs01_00099511, SASI_Hs01_00099512, SASI_Hs01_00099513, SASI_Hs01_00099514, SASI_Hs01_00099515 and SASI_Hs01_00099516; MilliporeSigma), human cdc42 siRNA SMARTpool (M-005057-01; Dharmacon), human CD133 siRNA SMARTpool (M-010630-01; Dharmacon), human srGAP1 siRNA SMARTpool (M-026974-00; Dharmacon), srGAP2 siRNA SMARTpool (M-021531-03; Dharmacon), human caveolin-1 siRNA SMARTpool (M-003467-01; Dharmacon), human GDF6 siRNA SMARTpool (M-0330055-01; Dharmacon), and Non-Targeting siRNA Pool #2 (D-0012Jun. 14, 2005; Dharmacon), siRNA transfection of cell lines was performed using Lipofectamine™ RNAiMAX Transfection Reagent (Thermo Fisher).
Cell proliferation and xenograft tumorigenicity assays. Anchorage-dependent cell proliferation was assessed by IncuCyte live-cell imaging system (Essen BioScience). The IncuCyte system monitors cell proliferation by analyzing the occupied area (% confluence) of cell images over time. At least four fields from four wells were assayed for each experimental condition. The cell seeding density was 2000 cells per well in a 96-well plate. […] Anchorage-independent cell proliferation was evaluated by soft agar colony formation assays. […] Colonies were grown for three weeks and counted. Colonies (>50 cells) were scored by randomly counting 10 fields per dish. […] Tumor growth was monitored weekly using a caliper. […]

Molecule | BRG1 and BRM pulled down by biotin-conjugated phalloidin (BAF complexes [1]) | BAF subunit levels in NELL2 siRNA-transfected cells (BAF complexes [2]; A-673 and EW8 cells, recombinant NELL2 250 ng/ml, FIG. 3J) | CD133 and BAF subunit protein levels in the CD133low population (BAF complexes [2]; four or twenty-four hours, FIG. 5B) | BRG1, BAF155, and BAF47 levels after NELL2 silencing in the presence of dasatinib (BAF complexes [2]; recombinant NELL2 250 ng/ml, dasatinib present) | Accumulation of Robo3-FLAG on the cell surface after NELL2 silencing [3] | Activation of cdc42 and Rac by NELL2 silencing (cdc42 and Rac; lane 1-3) | Active cdc42 and active Rac in srGAP1- and srGAP2-silenced cells (cdc42 and Rac; lane 4-6) | Recombinant NELL2 concentration able to rescue the slow growth of the CD133low population (CD133^low population) [ng/mL] | Slow growth of the CD133low population (CD133^low population) | Size of the BAF complexes after NELL2 silencing (BAF complexes [4]) | Proliferation inhibition by NELL2 silencing, rescue by recombinant protein (A-673 and EW8 cells) | Proliferation inhibition by NELL2 silencing, rescue by recombinant protein (A-673 and EW8 cells; listed as Recombinant NELL2)
C/C1=C\[C@H](C)C[C@H](C)OC(=O)C[C@H](c2ccc(O)cc2)NC(=O)[C@@H](Cc2c(Br)[nH]c3ccccc23)N(C)C(=O)[C@H](C)NC(=O)[C@@H](C)C1 [Jasplakinolide] | more BRG1 and BRM are pulled down | – | – | – | – | – | – | – | – | – | – | –
B1 | – | restores the protein levels of BAF subunits; also recorded: rescued | increases CD133 and BAF subunits; also recorded: increased CD133, BRG1, BAF250A, BAF155, and BAF47 | rescued | reversed | abolished | not affected | ≥ 250 | can be rescued; also recorded: rescues the slow growth | largely restored the size | rescues proliferation arrest; also recorded: completely rescued | able to rescue the proliferation
